Data from article PMC7592216.

Test system: eIF4E (eukaryotic translation initiation factor 4E, cap-binding protein) (wheat)
Test: EMSA
Conditions: 10 mM HEPES pH 7.5, 20 mM KCl, 1 mM DTT, 3 mM MgCl2, 0.1 ug/ul yeast tRNA, 1 ug/ul BSA, 1 U/ul RNaseOUT, 20 mM Tris-HCl/10% glycerol; 25 min on ice; 10 fmol …

Substance MTE (MCMV 3' CITE), uncapped has a Kd of 0.08 µM.
